Test results from paper PMC8244255 (Current Research in Structural Biology, 2021).

Columns and labels:
Full-length human CaM = Full-length human CaM (Homo sapiens, UniProt P0DP23); test: ITC of CK peptides with full-length CaM; type: binding
[1] = target: C-lobe fragment (CaM 76–146) (Homo sapiens, UniProt P0DP23); test: ITC of CK peptides with C-lobe fragment of CaM; type: binding; conditions: C-lobe compared to N-lobe
[2] = target: Calmodulin N-terminal globular domain (N-lobe fragment, sequence 1-75) (human, UniProt P0DP23 1-75); test: ITC
[3] = target: Calmodulin C-terminal globular domain (C-lobe fragment, sequence 76-146) (human, UniProt P0DP23 76-146); test: ITC

Molecule	binding to CaM (Full-length human CaM; at any solution conditions)	affinity for C-lobe relative to N-lobe (times higher) [1]	stoichiometry n (Full-length human CaM; presence of Ca2+)	stoichiometry N [2]	stoichiometry N [3]
AcNH-LKRLRLQKRGTGGVDTAA-CONH2 [peptide covering CKB residues 312–329]	No binding could be detected	–	–	–	–
Ac-NLGKHEKFSEVLKRLRLQ-NH2 [CKB peptide (human brain-type creatine kinase residues 301-318)]	–	–	–	1 peptide per fragment	1 peptide per fragment

Further lines, results first:

binding to CaM (Full-length human CaM; at any solution conditions)	affinity for C-lobe relative to N-lobe (times higher) [1]	stoichiometry n (Full-length human CaM; presence of Ca2+)	stoichiometry N [2]	stoichiometry N [3]	Molecule
–	ca. 10 times	2	–	–	Ac-NLGKHEKFSEVLKRLRLQ-NH2 [CKB peptide]
–	–	–	1 peptide per fragment	1 peptide per fragment	Ac-HLSKHPKFEEILTRLRLQ-NH2 [CKM peptide (human muscle-type creatine kinase residues 301-318)]
